Assay: yeast display, Sf9 membrane polyspecificity reagent, FACS + sequencing; frameworks hold sequencing errors
Procedure, shortened: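 A nanobody's polyreactivity label depends on the gate it was sorted from. Yeast display cells were stained with 10% biotinylated, detergent-solubilized Sf9 membrane reagent for 1 hour at 4 °C, enriched on streptavidin microbeads and sorted by FACS. The low and high (top ~1%) gates were set on anti-HA fluorescence for expression and streptavidin fluorescence for reagent binding.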

Sequence | polyreactivity (PSR sort gate)
QVQLVDSGGGLVQAGGSLRLSCAASGSTFVQYAMGWYRPAPGKERELVAAISTGGSTNYADSVKGRFTISRDNAKNTVYLEMNSLKPEDTAVYYCNVAVWTIVQSLYPYDYWGQGTQVTVSS | low polyreactivity
QVQLVESGGGLVQAGGSLRLSCAASGSISSYYAMGWYRQAPGQERELVAAITLNGGNTYYADSVKGRFTISRDNAKKTVYLQMNSLKPEDTAVYYCARRYRYGTKYYYWGQGTQVTVSS | high polyreactivity
QVQLVESGGGLVQAGGSLRLSCAASARTFVWNAMGWYRQAPGKERELVAAIDWSGGSTYYADSVKGRFTISRDNAKNTVYFQMYSLKPEDTAVYYCAVAVWNGSEYWGQGSQVTVSS | high polyreactivity
QVQLVESGGGLVQAGGSLRLSCAASGFIFIQNDMGWYRQAPGKEREFVASISKDGGRTYYADSVKGRFTISRDNAKNTVYLQMNSLKPEDTAVYYCNTYPRGNWGNFVEQDYDYWGQGTQVTVSS | low polyreactivity
QVQLVESGGGLVQAGGSLRLSCAASGSICDRNAMGWYRQAPGKERELVANITWSGVSTYYADSVKGRFTMSRDNAKNTVYLQMNSLKPDDTAVYYCNADYSYRHWYDPGQYGQAMGYWGQGTQVTVSS | low polyreactivity
QVQLVESGGGLVQAGGSLRLSCAASGRTFNAYAMGWYRQAPGKERELVAAISSGGSTYYADSVKGRFTISRDNAKYTVYLQMNSLKPEDTAVYYCNKVYGWRQFDYWGQGTQVTVSS | high polyreactivity
QVQLVESGGGLVQAGGSLRLSCAASGFTFNGYAMGWYRQAPGKERELVAGITRRGGITYYADSVKGRFTISRDNAKNTVYLQMNCLKPEDTAVYYCARDYIGHALIHHASLYYYWGQGTQVTVSS | high polyreactivity
QVQLVESGGGLVQAGGSLRLSCAASGRIFRLYALGWDRQAPGKERELVATITSGGTYYADSVKGRFTISRDNAKNTVYLQMNSLKPEDTAVYYCAAHSGSTYKYWGQGTQVTVSS | low polyreactivity
QVQLVESRGRLVQAGGSLRLSCAASGSIFGTYAMGWYRHAPGKERELVAAISWSDGSTYYADSVKGRFTISRDNAKYTVYLQMNSLKPEATEVYFCSKVYRSIGANVSRYGLSYYYWGQGTQVTVSS | low polyreactivity
QVQLVESGGGLVQAGGSLRLSCAASGFIFIYYAMGWYRQAPGKERELVAGITSGGSTNYADSVKGRFTISRDNAKNTVYLQMNSLKPEDTAVYYCAAGSSARWYPRYNYWGQGTQVTVSS | high polyreactivity
QDQLVESGGGIVQAGGILRLSCASSGFIFRGYAMGWYRQAPGKEWELVAAINSGDSTNYADSVKGRFTISRDNAKNTVSLQMNSLKREDTAVYYCAASIYAALNGGEGYDYWGQGTQVTVSS | low polyreactivity
QVQLVESGGGLVQAGGSLRLSCAASGLIFKVYALGWYRQAPGQERELVAAITYSGGSTDYADSVKGRFTISRDNAKNTVYLQMNSLKPEDTAVYYCNVETVGHVNSYGYDYWGQGTQVTVSS | low polyreactivity
QVQLVESGGGLVQAGGSLRLSSAASGRTISNYDMGWYRQAPGKERELVAAITYSGGSTYYADSVKGRFTISRDNAKNTVYLQMNSLKPEDTAVYYCAKISGTYYRYDYWGQGTQVTVSS | high polyreactivity
QVQLVESGGGLVQAGGSLRLSCAASGSIFVGYVMGWYRQAPGKERELVARIRWGGGRTYYADSVKGRFTISRDNAKNTVYLQMNSLKPEDTAVYYCNARYSYHSVGYWGQGTQVTVSS | high polyreactivity
QVQLVESGGGLVQAGGSLRLSCAASGFTFYAYAMGWYRQAPGKERELVAVISWSGGSTYYADSVKGRFTISRDNAKNTVYLQMNSLKPEDTAVYYCAADSLESYPDYEYDYWGQGTQVTVSS | low polyreactivity
QVQRVDSGGGLVQAGGSLRVSCAASGFIFVANAMGGDREAPGKERELVADINRGSTYYADSVKGRFTISRDNAKNTVYLQMNSLKPEDTAVYYCAARHWRRSGIYYYWGQGTQVTVSS | high polyreactivity
QVQLVESGGGLVQAGGSLRLSCAASGITFVPYVMGWYRQAPGKERELVAAITVRGSRTYYADSVKGRFTISRDNAKNTVYLQMNSLKPEDTAVYYCAAGRYLSRTFFTYYYWGQGTQVTVSS | high polyreactivity
QVQLVESGGGLVQAGCSLRLSCAASGRIFNWYGMGWYRQAPGKERELVAGITYSASRTYYADSVKGRFTISRDNAKNTVYLQMNSLKPEDTAVYYCAAGRYHRDDGYDYWGQGTQVTVSS | low polyreactivity
QVQLVESGGGLVQAGGSLRLSCAASGFTFVYYVMGWYRQAPGKERELVAAINAGGGSTYYADSVKGRFTISRDNAKNTVYLQMISLKPEDTSVYYCNARVRVRLGRNWSSYYYWGQGTQVTVSS | high polyreactivity
QVQLVESGGGLVQAGGSLRLSCAASGRTFGKNAMGWYRQAPGKEREFVAAITSRGGSTYYADSVKGRFTISRDNAKNTVYLQMNSLKPEDTAVYYCAADYYQWSTFLGVYEYDYWGQGTQVTVSS | low polyreactivity
QVQLVESGGGLVQAGGSLRLSCAASGSTFLYYAMGWYREAPGKERELVAVISWSGVSTYYADSVKGRFTISRDNAKNTVYLQMKSLKPEDTAVYYCNTGNHYIRTYGYWGQGTQVTVSS | low polyreactivity
QVQLVESGGGLVQAGGSLRLSCAASGRTFYIYAMGWYRQAPGKERELVAAITWRGGRTYYADSVKGRFTISRDNAKNTVYLQMNSLKPEDTAVYYCAARTGQGPLYNHWGQGTQVTVSS | high polyreactivity

Sequence | polyreactivity (PSR sort gate)
QVQLVDSGGGLVQAGGSLRLSCAASGSIFYWYAMGWYRQAPGKERELVAAISWSGGSTFYADSVKGRFTISRDNAKNTVYLQMNSLKPEDTAVYYCAAETPYDYDYWGQGTQVTVSS | high polyreactivity
QVQLVESGGGLVQAGGSLRLSCAASGFIFVKYAMGWYRQAPGKEREFVAAISQSGGNTYYADSVKGRFTISRDNAKNTVYLQMNSLKPEDTAVYYCNAKSYTRRSYYTPTVPGDYWGQGTQVTVSS | low polyreactivity
QVQLVESGGGLDQAGGSLRLTCAASGSIFAKYAMGWYRQAPGKERELVAAITSSGDSTNYADSVKGRFTISRDNAKNTVYVQMNSLKPEDTAVYYCAADHHYGYVYYAFWGYDYWGQGTQVTVSS | low polyreactivity
QVQLVESGGGLVQAGCSLRLSCAASGFIFGRYTMGWYRQAPGKERELVAAISGSDVSTYYADSVKGRFTISRDNAKNTVYLQMNSLKPEDTAVYYCNAGPWWYLHEYDYWGQGTQVTVSS | low polyreactivity
QVQLVESGGGLVQAGGSLRLSCAASGSTFYPNARGWYRQAPGKERELVAAISWSGGRTYYADSEKGRFTISRDNAKNTVYLQMNSLKPEDTAVYYCYRYHRTSGRAKYDYWGQGTQVTVSS | high polyreactivity
QVQLVESGGGLVQAGGSLRLSCAASGRTFEGYTMGWYRQAPGKERELVSAISWSGARTYYADSVKGRFTISRDNAKNTVYLQMNSLKPEDTAVYYCAADRYWISLWYIMGYWGQGTQVTVSS | high polyreactivity
QDQLVESGGGLVQAGGSLRLSFAAYGSTFIVYAMGWYRHAPGKERDLVAAISLDGGSTYYADSVKGRFTISLDNAKNNVYLQMNSLKPEDTAVYYCNADYYANSITYDSWGQGTQVTVSS | low polyreactivity
QVQLEESGGGLVQAGGSLRLSCAASGRIIYSNGMGWYRQAPGKERELVAAISSGGSTYYADSVKGRFTISRDNAKNTVYLQMNSLKPEDTAVYYCAADIDYERDRYDYWGQGTQVTVSS | low polyreactivity
QVQLVESGGGLVQAGGSLRLSCAASGFTFDVYTMGWYRQAPGKERELVASITYSGGDTYADSVKGRFTISRDNAKNTVYLQMNRLKPEDTAVYYCNAVVYYYLDEYWGQGTQVTVSS | high polyreactivity
QVHLVESGGALVQAGGSLRLSCASSGRTFGWNVMGWYRQAPGKERELVAAISGSGGSTYYADSLKGRFTISRDNAKNTVYLQMNSLKPEDTAVYYCAALYGPGREYDYWGQGTQVTVSS | low polyreactivity
QVQLVESGGGLVQAGGSLRLSCAPSGSIFNYNIGSYRQAPVKERELVAAVSTNYADSVKGRFTISRDNAKNTVYIQMNSLKPADSAVYYCGVTPEKSCDEYDYWGQGTQVTVSS | low polyreactivity
QVQLVESGGGLVQAGGSLRLSCAASGRIFWNYAMGWYREAPGKERELVASINWSGGSTYSADSVKGRFTISRDNAKNTVYLQMNSLKPEDTAVYYCNQDGRVYLDHDYWGQGTQVTVSS | low polyreactivity
QVQLVESGGGLVQAGGSLRLSCAASGITFSAYAMGWYRQAPGKERELVARISTDADTYYADSVKGRFTISRDNAKNTVYLQMNSLKPEDTAVYYCNADWSWYNYYDFDYWGQGTQVTVSS | low polyreactivity
QVQLVESGGGLVQAGGSLRLSCAASGITFTSYAMGWYRQAPGKERELVAAISSSGGSTYYADSVKGRFTISRDNAKNTVYLQMNRLKPEDTAVFYCNARPRSRSPRVEYDYWGQGTQVNVSS | high polyreactivity
QVQLVESGGGLVQAGGSLRLSCAASGRIFYFYAMVWYRQAPGKERELVAAISTSGGSTYYADSVKGRFTISRDNAKNTVYLQMNSLKPEDTAVYYCAARFRYYGSEYDYWGQGTQVTVSS | low polyreactivity
QVQLVESGGGLVQAGGSLRLSCAASGRIFDDYDMGWYRQAPGKERELVAAISFDGGNTYADSVKGRFTISRDNAKNTVYLQMNSLKPEDTAVYYCARDDTSPGYGDQSSNAAYYYWGQGTQVTVSS | low polyreactivity
QVQLVESGGGLVQAGGSLRLSSAASGRIFWFNAMGWYRQAPGKEREWVATISSGDSTNYADSVKGRFTISRDNAKNTVYLQMNSLKPDDTAVYYCNARVSHVQVGFDSWGQCTQVTVSS | low polyreactivity
QVQLVESGGGLVQAGGSLRLSCAASGRIFNVNVMGWYRQAPGKERELVASINWSGTSTYYADSVKGRFTISRDNAKNTVYLQMNSLKPEDTAVYYCAADLALYNTLYLTLPDYYWGQGTQVTVSS | low polyreactivity
QVQLVESGGGLVQAGGSLRLSCAASGRSFGNYVMGWYRQAPGKERELVAAISRSGGSTYYADSVKGRFTISRDNAKNIVYLQMNSLKPEDTAVYYCNTVTTYDVEYWGQGTQVTVSS | high polyreactivity
QVQLVESGGGLVQAGGSLRLSCAASGLIFGYYTMGWYRQAPGKEREFVAAISRGGGSTYYADSVNGRFTISRDNAKNTVYLHMNSLKPEDTAVYYCAAVVYGQVQPAYDYWGQGTQVTVLS | high polyreactivity
QVQLVESGGGLVQAGGSLRLSCAASGRTFRTYTMGWYRQAPGKEREFVAAITSSGASTYYADSVKGRFTISRDNAKNTVYLEMNSLKPEDTAVYYCAARYGRRLVWVPALLYDYWGQGTQVTVSS | high polyreactivity
